Patent US6383782
Blank lines part the entries; values can stand above or below the substance they belong to.

Columns and labels:
[1] = biological target: MCP-1 receptor B (CCR2B) (human) (UniProt P41597); assay: competition with 100 pM 125I-MCP-1 on CHO-CCR2B membranes, filtration; mean of 18 assays
[2] = biological target: MCP-1 receptor B (CCR2B) (human) (UniProt P41597); assay: cell-based or functional assay
[3] = biological target: MCP-1 receptor B (CCR2B) (human) (UniProt P41597); assay: competition with 100 pM 125I-MCP-1 on CHO-CCR2B membranes, filtration; at least 2 assays
[4] = biological target: MCP-1 receptor B (CCR2B) (human) (UniProt P41597); assay: cold competition of unlabelled MCP-1 against 100 pM 125I-MCP-1 on CHO-CCR2B membranes
[5] = biological target: MCP-1 receptor B (CCR2B) (human) (UniProt P41597); assay: equilibrium binding of 125I-MCP-1 to CHO-CCR2B membranes
[6] = biological target: MCP-1 receptor B (CCR2B) (human) (UniProt P41597); assay: competition with 100 pM 125I-MCP-1 on CHO-CCR2B membranes, filtration; mean of 8 assays

IC50 [1]: 1.9 nM | Calcium flux (IC50), THP-1 cells [2]: 45 nM | Chemotaxis (IC50), THP-1 cells, 1 nM MCP-1 [2]: 12 nM
Substance: MCP1(9-76) (SEQ ID NO: 30) (from UniProt P13500 32-99) (ligand)

IC50 [3]: 3.2 nM
Substance: Met-MCP1(9-76) (SEQ ID NO: 31) (from UniProt P13500 32-99) (ligand)

IC50 [4]: 0.11 nM | rise in [Ca2+]i in THP-1 cells (EC50) [2]: 2 nM | Kd [5]: 0.12 nM
Substance: Monocyte Chemoattractant Protein-1 (MCP-1) (from UniProt P13500 24-99) (ligand)

IC50 [1]: 2.5 nM | Calcium flux (IC50), THP-1 cells [2]: 109 nM | Chemotaxis (IC50), THP-1 cells, 1 nM MCP-1 [2]: 23 nM
Substance: [V9A]MCP1(9-76) (SEQ ID NO: 9) (from UniProt P13500 33-99) (ligand)

IC50 [6]: 3.2 nM | Chemotaxis (IC50), THP-1 cells, 1 nM MCP-1 [2]: 10.9 nM
Substance: [V9G]MCP1(9-76) (SEQ ID NO: 26) (from UniProt P13500 33-99) (ligand)

IC50 [6]: 2 nM | Chemotaxis (IC50), THP-1 cells, 1 nM MCP-1 [2]: 21 nM
Substance: [V9T]MCP1(9-76) (SEQ ID NO: 29) (from UniProt P13500 33-99) (ligand)

IC50 [3]: 2.6 nM | Calcium flux (IC50), THP-1 cells [2]: 117 nM
Substance: pGlu-MCP1(9-76) (SEQ ID NO: 32) (from UniProt P13500 32-99) (ligand)
